Laboratory results published in article PMC8183112.

B1: BK channel β1 subunit: N80Q/N142Q (protein)
parent chain: MVKKLVMAQKRGETRALCLGVTMVVCAVITYYILVTTVLPLYQKSVWTQESKCHLIETNIRDQEELKGKKVPQYPCLWVNVSAAGRWAVLYHTEDTRDQNQQCSYIPGSVDNYQTARADVEKVRAKFQEQQVFYCFSAPRGNETSVLFQRLYGPQALLFSLFWPTFLLTGGLLIIAMVKSNQYLSILAAQK
B2: BK channel β1 subunit: PNGase F (protein)
parent chain: B1 parent chain
B3: BK channel β1 subunit: tunicamycin (protein)
parent chain: B1 parent chain
B4: BK channel β1 subunit: N80A/N142A (protein)
parent chain: B1 parent chain

Experiments:
[1] = western blot, relative β1 level; details: glycan lost; control: wild-type β1, untreated
[2] = whole-cell patch clamp, current density; details: glycan lost; control: wild-type BK (α+β1)
[3] = activation time constant, single exponential fit, +50 to +120 mV; details: glycan lost; control: wild-type BK (α+β1)
[4] = whole-cell patch clamp, 400 nM martentoxin, no cytoplasmic Ca2+; details: glycan lost; control: wild-type BK (α+β1)
[5] = whole-cell G-V curve, Boltzmann fit, 300 nM Ca2+; details: glycan lost; control: wild-type BK (α+β1)
[6] = whole-cell patch clamp, 400 nM martentoxin, 300 nM Ca2+; details: glycan lost; control: wild-type BK (α+β1)
[7] = whole-cell patch clamp, 100 nM IbTx, 300 nM Ca2+; details: glycan lost; control: wild-type BK (α+β1)
[8] = whole-cell patch clamp, 100 nM IbTX, 300 nM Ca2+; details: glycan lost; control: untreated wild-type BK (α+β1)
[9] = whole-cell patch clamp, 100 nM MarTX, no cytoplasmic Ca2+; details: glycan lost; control: untreated wild-type BK (α+β1)
[10] = whole-cell patch clamp, 400 nM IbTX, 300 nM Ca2+; details: glycan lost; control: untreated wild-type BK (α+β1)
[11] = whole-cell patch clamp, 400 nM MarTX, no cytoplasmic Ca2+; details: glycan lost; control: untreated wild-type BK (α+β1)

| Protein | expression_or_secretion [1] | other: channel current [2] | other: channel activation kinetics [3] | other: toxin inhibition of channel current, other: fractional current remaining (If) [4] | other: voltage dependence of activation, other: V1/2 [5] | other: toxin enhancement of channel current, other: fractional current remaining (If) [6] | other: toxin inhibition of channel current, other: fractional current remaining (If) [7] | other: toxin inhibition of channel current, other: fractional current remaining (If) [8] | other: toxin inhibition of channel current, other: fractional current remaining (If) [9] | other: toxin inhibition of channel current, other: fractional current remaining (If) [10] | other: toxin inhibition of channel current, other: fractional current remaining (If) [11] |
| --- | --- | --- | --- | --- | --- | --- | --- | --- | --- | --- | --- |
| B1 | no change | no change | decreases | increases, 0.72 ± 0.099 vs 0.97 ± 0.018 | no change, 65.35 ± 1.48 vs 66.52 ± 1.47, slope 22.89 ± 1.24 vs 22.55 ± 1.21 | abolishes, 1.04 ± 0.02 vs 1.13 ± 0.01 | increases, 0.46 ± 0.04 vs 0.92 ± 0.01 | – | – | – | – |
| B2 | – | – | – | – | – | – | – | increases, 0.54 ± 0.05 vs 0.89 ± 0.01 | increases, 0.83 ± 0.03 vs 1.00 ± 0.03 | increases, 0.43 ± 0.06 vs 0.65 ± 0.03 | increases, 0.63 ± 0.02 vs 1.00 ± 0.03 |
| B3 | no change | – | – | – | – | – | – | – | – | – | – |
| B4 | no change | no change | – | increases, 0.71 ± 0.064 vs 0.97 ± 0.018 | – | abolishes, 0.99 ± 0.02 vs 1.13 ± 0.01 | increases, 0.46 ± 0.04 vs 0.92 ± 0.01 | – | – | – | – |
